Patent publication US20180112193A1, “CSF1 THERAPEUTICS” (University Court Of The University Of Edinburgh, priority 2013, published 2018)

Key:
[1] = tested on: Ba/F3 CS1R reporter cell line; experiment: Proliferation of Ba/F3 CS1R reporter cell line (MTT cell viability assay); assay type: cell-based, porcine; conditions: data not shown
Procedure: Stable Ba/F3 cells expressing porcine CSF-1R were maintained in culture with complete RPMI supplemented with either 10^4 Units/ml rh-CSF-1 or 10% IL-3 conditioned medium prior to MTT assay. 2×10^4 cells/well (Ba/F3 cells and Ba/F3 transfectants), or 5×10^4 cells/well (pig BMM) of a 96 well plate were plated in triplicate or quadruplicate and appropriate treatment (serial dilutions of rh-CSF-1 or porcine Fc CSF-1 were added to make a total volume of 100 μl per well. Cells were incubated for 48 hours at 37° C. with 5% CO2. For Ba/F3 cells, 10 μl of MTT (Sigma Aldrich M5655) stock solution (5 mg/ml) was added directly to each well to achieve a final concentration of 0.5 mg/ml and incubated at 37° C. for 3 hours prior to solubilisation overnight. For adherent mouse BMM cells, culture medium was replaced with 50 μl of 1 mg/ml MTT solution and incubated for 1 hour at 37° C. MTT solution was removed and tetrazolium salt solubilised with 100 μl of solubilisation agent (0.1M HCL, 10% Triton x-100 and isopropanol) followed by incubation at 37° C. with 5% CO2 for 10 minutes. Plates were read at 570 nm with reference wavelength of 405 nm.
Mice were injected with Fc-CSF-1 subcutaneously on each of 4 days and sacrificed on the 5th day. The mice were csf1r-EGFP (MacGreen) mice on the C57BI/6 background. […]

neonatal pigs = experiment: Fc-CSF-1 efficacy/safety treatment trial in neonatal pigs; assay type: in vivo, pig
Procedure: Further tests were conducted to assess Fc-CSF-1 efficacy/safety treatment trial in neonatal pigs. At the two doses tested (0.12 mg/Kg×3 and 0.5 mg/Kg×6) the Fc-CSF-1 treatment had little effect on body weight gain at any time point. […] It was noted that in the control animals, that the total blood cell count, monocyte count and granulocyte count declines in the first two weeks of life in the pig.

male C57BI6 mice [2] = experiment: Murine models of acute and acute-on-chronic liver injury (all three injury models); assay type: in vivo
Procedure: (§1) Forty-eight male C57BI6 mice aged 10-12 weeks underwent either 2/3 partial hepatectomy, paracetamol intoxication or chronic liver injury plus 2/3 partial hepatectomy. 2/3 partial hepatectomy was performed by ligating the left lobe and left and right median lobes. Paracetamol intoxication was performed by intraperitoneal administration of 350 mg/kg paracetamol dissolved in phosphate buffered saline (PBS). Chronic liver injury plus 2/3 partial hepatectomy was performed by eight weeks intraperitoneal carbon tetrachloride administration 1 mcl/g twice weekly dissolved in olive oil followed by ⅔ partial hepatectomy as described above. […] Control mice (n=8 per injury model) received subcutaneous PBS of appropriate volume. All mice were culled on day 4 following injury (partial hepatectomy or paracetamol intoxication).
(§2) Following a midline laparotomy the liver was excised and weighed. Liver weight to body weight ratio was calculated and expressed as a percentage. Livers were fixed in 4% formalin overnight then transferred to 70% ethanol. Livers were then embedded in paraffin blocks and 4 μm sections cut. Immunohistochemistry for Ki67 (a marker of cellular proliferation expressed throughout the cell cycle) was performed following heat mediated antigen retrieval in Tris/EDTA solution at pH9. Hepatocyte proliferation was quantified by counting ki67 positive hepatocytes in 20 high powered fields (400×) per animal and the mean calculated.
The effects of Fc-CSF1 on liver regeneration in murine models of acute liver injury (partial hepatectomy; paracetamol intoxication) and acute-on-chronic liver injury (chronic liver injury plus partial hepatectomy) were studieD. The treatment group (n=8 per injury model) received 0.5 mcg/g Fc-CSF1 administered subcutaneously immediately following either partial hepatectomy or paracetamol intoxication and subsequently every 24 hours for three further doses. Control mice (n=8 per injury model) received subcutaneous PBS of appropriate volume. […]

male C57BI6 mice [3] = experiment: 2/3 partial hepatectomy in mice; assay type: in vivo, mouse
Procedure: as §1, with “All mice were culled on day 4 following injury (partial hepatectomy or paracetamol intoxication).” left out
as §2, with “calculated. […]” for “calculated.”

weaner pigs = experiment: Preliminary experiment on weaners, circulating monocytes; assay type: in vivo, pig; conditions: three treatments with 0.4 mg/kg every alternative day
Procedure: Note that the peak plasma level obtained is only around 100 ng/ml, and it is completely cleared by 20 hours. By contrast, Fc-CSF-1 (FIGS. 9B and C) attains 100-fold higher plasma concentrations and remains elevated for up to 72 hours. A preliminary experiment on weaners determined that three treatments with 0.4 mg/kg with Fc-CSF-1 every alternative day produced a 2-3 fold increase in circulating monocyte numbers.

[4] = 0.12 mg/Kg×3, end of the experiment
[5] = all injury models, vs PBS control
[6] = administered immediately following 2/3 partial hepatectomy, vs control
[7] = day 2 following partial hepatectomy, vs controls

B1: Fc-CSF-1: active fragment of porcine CSF-1 (SEQ ID NO:1) linked to the hinge-CH3 region of porcine IgG1a (SEQ ID NO:2) (protein, listed as Sus scrofa)
chain: SENCSHMIGDGHLKVLQQLIDSQMETSCQIAFEFVDQEQLTDPVCYLKKAFLQVQDILDETMRFRDNTPNANVIVQLQELSLRLNSCFTKDYEEQDKACVRTFYETPLQLLEKIKNVFNETKNLLKKDWNIFSKNCNNSFAKCSSQHERQPEGRGTKTKPPCPICPGCEVAGPSVFIFPPKPKDTLMISQTPEVTCVVVDVSKEHAEVQFSWYVDGVEVHTAETRPKEEQFNSTYRVVSVLPIQHQDWLKGKEFKCKVNNVDLPAPITRTISKAIGQSREPQVYTLPPPAEELSRSKVTVTCLVIGFYPPDIHVEWKSNGQPEPEGNYRTTPPQQDVDGTFFLYSKLAVDKARWDHGETFECAVMHEALHNHYTQKSISKTQGK
Q: Which results are given for B1?
A: biological activity (proliferation) compared with recombinant pig CSF-1 [1]: no difference in biological activity; kidney weight (neonatal pigs; [4]): did not alter; liver weight (neonatal pigs; [4]): did not alter; lung weight (neonatal pigs; [4]): did not alter; spleen weight (neonatal pigs; [4]): did not alter; body weight gain (neonatal pigs; 0.12 mg/Kg×3 and 0.5 mg/Kg×6, any time point): little effect; granulocyte count (neonatal pigs; blood, vs control animals): increased; lymphocyte count (neonatal pigs; blood, vs control animals): increased; monocyte count (neonatal pigs; blood, vs control animals): increased; weight gain (neonatal pigs; higher dose (0.5 mg/Kg×6), data not shown): marginal decrease; histiocytes in the liver (pathology report) (neonatal pigs; liver): increased numbers; hepatic weights (male C57BI6 mice [2]; [5]): growth promoting effect; hepatocyte proliferation (male C57BI6 mice [2]; [5]): growth promoting effect; tolerability of interventions and treatments (male C57BI6 mice [2]; subcutaneously immediately after injury, then every 24 hours for three further doses): well tolerated; hepatocyte proliferation (male C57BI6 mice [3]; [6]): increasing; liver weight to body weight ratio (male C57BI6 mice [3]; [6]): significantly increasing; gene expression of oncostatin M (OSM) (male C57BI6 mice [3]; [7]): significantly enhanced; gene expression of pro-regenerative cytokine 116 (male C57BI6 mice [3]; [7]): significantly enhanced; urokinase receptor (UR) expression (male C57BI6 mice [3]; following partial hepatectomy, vs controls): significantly elevated; increase in circulating monocyte numbers (weaner pigs): 2-3 fold
